Experimental data published in the supplement of paper PMC7125110.
± gives the standard error. For some assays here: Fewer inactive variants are shown than the library holds.

B1: glmS ribozyme (parent)
chain: AUAAAAGCGCCAGAACUACAGAAAUGUAGUUGACGAGGAGGAGGUUUAUCGAAUUUUCGGCGGAUGCCUCCAAA

Key:
Details in all cases: with glucosamine-6-phosphate
[1] = variants of: B1; test: kcat; higher = faster cleavage; RNA array
Procedure, shortened: (§1)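 Barcoded glmS ribozyme variants on sequenced MiSeq chips were transcribed in situ by E. coli RNA polymerase and tracked through a hybridised Cy3 probe at 37 °C. Glucosamine-6-phosphate (40 μM to 10 mM) in HEPES/KCl/Mg(OAc)2 buffer was flowed in, and tiles were imaged over ~14 h. Signals were normalised to baseline and to non-cleaving reference variants; per-tile medians were fit to one- or two-exponential decays to give kobs. kcat and KM came from weighted Michaelis–Menten fits across concentrations.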

[2] = variants of: B1; test: KM; higher = weaker cofactor use; RNA array
Procedure, shortened: as §1

[3] = variants of: B1; test: self-cleavage kobs at 640 uM GlcN6P; higher = faster cleavage; RNA array
Procedure, shortened: as §1

[4] = variants of: B1; test: self-cleavage kobs at 2500 uM GlcN6P; higher = faster cleavage; RNA array
Procedure, shortened: as §1

[5] = variants of: B1; test: self-cleavage kobs at 10000 uM GlcN6P; higher = faster cleavage; RNA array
Procedure, shortened: as §1

[6] = variants of: B1; test: self-cleavage kobs at 40 uM GlcN6P; higher = faster cleavage; RNA array
Procedure, shortened: as §1

[7] = variants of: B1; test: self-cleavage kobs at 160 uM GlcN6P; higher = faster cleavage; RNA array
Procedure, shortened: as §1

| Variant | kcat [1] [s⁻¹] | KM [2] [mM] | self-cleavage kobs at 640 uM GlcN6P [3] [s⁻¹] | self-cleavage kobs at 2500 uM GlcN6P [4] [s⁻¹] | self-cleavage kobs at 10000 uM GlcN6P [5] [s⁻¹] | self-cleavage kobs at 40 uM GlcN6P [6] [s⁻¹] | self-cleavage kobs at 160 uM GlcN6P [7] [s⁻¹] |
| --- | --- | --- | --- | --- | --- | --- | --- |
| A6C C70U | 0.000107 ± 2.6e-06 | 1.35 ± 0.11 | 3.3e-05 ± 6.9e-06 | 7.26e-05 ± 9.6e-06 | 9.39e-05 ± 7.1e-06 |  |  |
| A33C A39G | 0.0011 ± 0.0002 | 5.03 ± 1.4 | 0.000138 ± 1.9e-05 | 0.000373 ± 9.9e-05 | 0.000722 ± 8.1e-05 |  |  |
| U45A U65G | 0.00585 ± 0.001 | 4.29 ± 1.1 | 0.000543 ± 0.00016 | 0.00235 ± 0.00063 | 0.00411 ± 0.00045 | 5.91e-05 ± 7.9e-06 |  |
| C10U A12C | 5.93e-05 ± 3.7e-06 | 3.45 ± 0.58 |  | 2.54e-05 ± 8e-06 | 4.39e-05 ± 8.1e-06 |  |  |
| A52C U54A | 1.15e-05 ± 1.5e-06 | 0.368 ± 0.13 |  |  |  |  |  |
| A14C U65G | 0.00175 ± 0.00025 | 4.5 ± 1 | 0.000206 ± 5.5e-05 | 0.000717 ± 0.00019 | 0.00117 ± 0.00024 |  |  |
| U57A C58G | 7.04e-05 ± 3.8e-06 | 4.69 ± 0.58 |  | 2.42e-05 ± 1.1e-05 | 4.8e-05 ± 1.2e-05 |  |  |
| A12C A64C | 0.000233 ± 1.8e-05 | 4.85 ± 0.77 |  | 8.34e-05 ± 1.5e-05 | 0.000156 ± 2e-05 |  |  |
| G13U G29U C70A | 3.94e-05 ± 1.3e-05 |  |  | 4.33e-05 ± 1.9e-05 |  |  |  |
| G37U C50U C70U | 3.99e-05 ± 1.4e-05 |  |  |  |  |  |  |
| G13C C67A | 5.87e-05 ± 1.1e-05 | 5.93 ± 2.6 |  |  | 3.7e-05 ± 9e-06 |  |  |
| G32A U49A | < 1e-05 |  |  |  |  |  |  |
| U31G U45G | 0.00239 ± 0.00077 |  | 0.000405 ± 0.0001 | 0.00155 ± 0.00034 | 0.00164 ± 0.00042 |  |  |
| U46A C70U | 0.004 ± 0.0017 |  | 0.00135 ± 0.00019 | 0.00206 ± 0.00026 | 0.00626 ± 0.00087 | 0.000188 ± 3.1e-05 | 0.000346 ± 5.5e-05 |
| C16A U47G | 0.000198 ± 3e-05 | 0.631 ± 0.23 | 9.31e-05 ± 7.8e-06 | 0.000184 ± 2.7e-05 | 0.000186 ± 2.3e-05 |  | 6.15e-05 ± 1.2e-05 |
| C8U A42U | < 1e-05 |  | < 1e-05 |  |  |  |  |
| A15G U56C | 0.0034 ± 0.0013 |  | 0.000805 ± 0.00025 | 0.00116 ± 0.00021 | 0.00354 ± 0.0006 | 5.65e-05 ± 1.3e-05 | 0.00017 ± 2.9e-05 |
| U47G U65C | 0.000283 ± 6.3e-05 |  | 7.88e-05 ± 2.3e-05 | 0.000316 ± 6.8e-05 | 0.000232 ± 3.5e-05 |  |  |
| A33G C70G | 1.95e-05 ± 6.8e-06 |  |  |  |  |  |  |
